This note sets out measurements from US20030007991A1, “Devices including protein matrix materials and methods of making and using thereof” (priority 1998, published 2003).

The data set concerns xanthine oxidase. Put plainly: In vitro enzyme activity of xanthine oxidase in a protein matrix array piece (Sigma Enzymatic Assay of Superoxide Dismutase protocol, spectrophotometer). It counts as biochemical. The note with it: absorbance measured at 550 mm, cytochrome C and other reactants, no enzyme activity produces 0.00000 change.

In the case of xanthine oxidase, the “enzyme activity of xanthine oxidase (change in absorbance)” value is recorded as 0.0250 delta absorbance/min.
